# Data taken from the domain aggregation screens of Martell et al. (2025).
# Assay: soluble fraction after stress (log2 fold change); higher = more stays soluble; pooled small domains, quantitative proteomics
# Settings: stress: 75 degC
# 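Note: 20 min heating vs room temperature control held 20 min.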
row,Sequence,soluble fraction (log2)
1,HMTIPSYAEAVRYVRRQPRINTSTLADGLGIRWSLALDYLERMARSGVVGAIEDDGWWPVAR,-0.977
2,HMTIRIPEEEYLTRAKRAAQMTAERGLDALFLFGSEGDFQNVRYFTSVTPIWERLGVVITASGKAAMLTGP,-0.145
3,HMTIRPEDVELVPAEDGYMQGDVVSNIFKGVHYELEVKANGYDWMVHTTKYVEVGSHVGIKVIPFNIQV,0.322
4,HMTISPYTKDDFLKGTKPFEDVYAHKADPFVHDRALEQMTIWAKSVGVNGFKKLYKAYIDSLRIKNKEI,-0.315
5,HMTKAGVDAWTRGDYAAAVKEWQAQAAKGDADAIFNLGQAFKLGKGVPQDLIKAEQLFGQAAA,0.246
6,HMTKDEIIIQSIIDAAKKLMQQYGLNKTTMEDIAKEAGKGKSTLYHYFKSKEEIFDQVINQEID,0.0589
7,HMTKEEFLDEIKKELGFMPYEEVIKAEKYFESYFNGSEADEKVIERFGSPKYAAQNYYRTHVAN,0.029
8,HMTKEEFLYELKKELSALDSAEATAYNLRYYSDYIDAEIAKGRSEQEVLDELGNPRWLVNSIKESG,-0.139
9,HMTKGDRIKARREELGLTQTDLAEAISSTKQNIYKYENNIISNIPSDKVEAIAEVLKISPAYLMGWGDE,-0.0377
10,HMTKGFSIQDISLSKSTMTFLQQNKITDLASLLSMSKSQIEGMKGFKPKMIQEIEKNLDKVGLVLAQD,-0.243
11,HMTKGVKVEIGTEEASVDLYVVMEYGTPIQKAAYDAQESVRKAIETMTNLHVVRVDVHVQGVSF,-0.466
12,HMTKGVWHTVKKGENLYRISLYYEVPQQEIKKANKIETENIVVGQKLFIPNTTKKSPIFALTP,-1.72
13,HMTKIDYSINQIYSLRNIENITIVLKDKRSFTGKILKIYWQNGSKIILFTTETRNYKFKEYEISEIYKS,-1.02
14,HMTKIEYTEQEFNDFIQAYKNNRKMFPEDYIVKTQVVFINKGFSKSQADMIIAQIETRLRLQGE,-2.91
15,HMTKIKAIFFDIDGTIRSFKTKTIPENTANTLKKLKEQGIKIFIATGRAPFHTTFLNDLLDFKFDGYITIN,-0.659
16,HMTKKSLFNQYLDDQKRLDIVTLQKAELVDLHKLADELNIDQYNQLKKNELIFKILQSNPSE,0.162
17,HMTKNEFLQGLKEELEGRVTHSAIQENIRYYDDYISQEVLKGSTEEEVTESLGGPRIIARTIVDAAYD,0.0243
18,HMTKPLHELLSQREFQVFTQLAAGRSVGEIAQQLSLSSNTVSTYRARILEKTGTRNDVELALYAIRR,-2.31
19,HMTKPTLMEVEIKGAIQNPGVYTLKRNSSISKLIKMSGPLLENADTSSISFTHILQDKDVVVIPEIK,-0.194
20,HMTKQEYLNQLKNELVKQGVADAEDVVTEYEQHFAFKLADGFGEEEIAKKLGDPAAIASQFVG,0.669
21,HMTKQMELLAQGAAKLSVDLNQRQLDQLQTYYRELVDWNQRMNLTAITQYEEVQVKHFLDSL,-0.477
22,HMTKRKNTEFRQQQIIEAAAKLIFKYGSEHLTVKRIAAQVGISEAAIYRHFTSKKSILSFLLSHIEE,-0.362
23,HMTKRTVKSVARKIADFNRERHRMPTYEEMLTLLAVRSKSVVHFWMNKLLQEGILEKDESGHLTFV,-0.179
24,HMTKSSAYLSAEKLINKKQYSDAIVKLNDALVTDSKNADIYNYLGFSHRKLGKMEDAAFFYNKALE,0.0234

row,Sequence,soluble fraction (log2)
1,HMTLDDSFYQKADEIIANHTKEERSLIPIIQDIQAEYRYLPPELLTYVAKEIGITDARAYSVASFYENFS,-0.521
2,HMTLDEDYFYYTLKAKEGYYRLYKKLGVDRKIIDSLNPNLKEMGLQVGMVIRVPKSQTSDLSVKNSLLVE,-1.64
3,HMTLHDLFPQAVEFVSEKEMISTAELQRKLMISYNSAAKIIDQLLHVDFIQKSESAGKYSVLIK,-2.66
4,HMTLNTQLFTWKKGVRVGEDDQGNIYYRTKDDKRRWVIFTGETEATKVSPDWHGWLHRTWATPPNK,-2.27
5,HMTLPGQDFIRASQLKELIAKYDKQYYEEGVSDISDAEYDRLYEEYLEFENKYPELKDMADAPTKRV,0.659
6,HMTLREQISALIKQGKLTQAKLARETGVNGGALSAWINGKYTGNVETVEEPIKHWMALNERK,-0.342
7,HMTLSVRQRMSQIINKIDVSNFTDFTKLFDINEGRLGVAVTFLAILELLKDTMIDVIQNEEFAPLHIKVSS,0.128
8,HMTMIIQLDKNITQEQRQFLVEELNRLSISPNFVSTQFTNYIVGIPKKEFDIRLIGNLPGIADIHFV,-1.58
9,HMTMKVTADILNMRSEASTNSDIVTKLKKDDELKVIEETKDDDGVTWVKVDFNGQVGFVSKEFLG,0.237
10,HMTMLLEYNVSRSSKWMNKTIMDAEIPDDILIVMIKRNGQVIVPKGSTEILENDILVLSGNNLNEVALG,-3.02
11,HMTMNYYDILSIKRDATLEEIQKAYKEKSFQFHPDFNKGISDDSMFRIIKEAYETLSDTEKRNQYDASLNK,0.45
12,HMTMQTAEQESRLEQKLIDLSVGIDRFEGYSRPHGQLIASIADRIGTRLGMAAHDRFYMQQAAL,0.203
13,HMTNADRFIGEEAMVIKKIDDINNDGQVKIAGQVWSAVSEDKSPLEEGTIVKVIAIRGVKLVVEPVS,-0.369
14,HMTNALDMMKTMDSDAYTKYQKISKESSNEDRQLNELKYITNWYAGAVKKNPSMVDDYEKQKEADS,0.302
15,HMTNELTEIFNSIRLTKKQKELLQSNYLSLRETYFLQGKTAFNLKFKNIAGLGKSTKKVLLEFFEESIE,-3.15
16,HMTNIDIEKSIKNTITANYDDVLNYHNEDDNKTFASGDSRYSFDYDEKTKTLIVFTNSKVDAVFVDGIKKK,0.308
17,HMTNISDYILEEYYKNVYPNDLNTKRIVIPNKYEEYAGKYTYITIARMVTYEHDAKKALKVLHQQAT,-0.307
18,HMTNKYSSLVIGTVKTIMEEDQYKNLMGPPLKKEIIKQVDKFTNALPIEFDQNDKDFYVKKILINL,-0.377
19,HMTNLKALRESKGVSQQTVADYLGITRQAYGNYETGKRQADYAALLRLAAFFGVSVDALLQP,-1.18
20,HMTNNDIIRRVRYLFNFSDKQVIELFKLANETVSIEHVSGWLKKEEDPTLIEISDRDLAVFLNGLII,0.557
21,HMTNQEFNEVFKLLLAAYPNTKDKESVATIYFLTIANELTKKEFAEAVVKILKTRKSGFIPQPAEILEVAK,-2.54
22,HMTNSAGIERFLASGAIDGVGPAMARRIVEHFGTEALRIIESVPHRLREISGIGPKTAEKIASSYMRQ,-1.15
23,HMTNTDALINRAAKVVEEINPDKNTGRVSIDGDLWRAKSSSGELIEQNKQVIVISIESTIVTVKI,-0.228
24,HMTNTWNNIVERNDLFFKKFTNTPFNGKIETYWPNGNLKETGIITDGKKDNLWEYYYENGNPKEVEF,-0.876

row,Sequence,soluble fraction (log2)
1,HMTNVFSIIGKKALVIKDIDPIHSSGQIKLNGEVWSAETENDEIIKEGSEVEVLKINGVKAIVKLV,-0.664
2,HMTNVIPKAMAPFNGSTIIADGIKNIKDHIDNLYITVGYKGATLSEHVINKGVSAVFNTTGKGNAWWVYN,0.343
3,HMTNVLSEQESKLLERMNKAGLNAEITVKKAAQILNLSESAARNVLNRLVGKGYLTVDTSRLPFLFQR,-0.277
4,HMTNVVSKNKAKEIAMNIINDTVLQGQTAATFKEIVKANGVYVVKIEIQGQEYTSYITKDGKIVFPYGVEV,-1.07
5,HMTNYSFIVNENFNNKRIDQVVANHYPKISRTKVNKIIKNNLLKLNGSTFNDPSAKVKLGDQIEFENL,0.434
6,HMTPAKQVSAKAERWIDQLGSSDWEKREEAAAELKKLGGAAKSALEKALKNADPEVASKAEELLEALES,0.19
7,HMTPATVVIPKVAGQTVAEAKETLKNANFEIGEEKDESSDTVEEGRVIRTDPESGTNRKEGTKINLIVSS,0.0198
8,HMTPFVINVDRHGAVIINEKTVDIDEAVVLARQERSQGKSILLAGDKKAPYEAIIRVLDALKQAG,-0.758
9,HMTPNATWQDDAQNLLRDLIQHQPVLVQISAAKRLRDQAEQISRITGGETVTREHVEAAGHALGMGVT,0.209
10,HMTPNRDDEHLQSLRDYYASNRRIPSLQRIAALLGFSSRSAAVKLMGRLADEGFVERTVDDDAWIPGSRFF,-1.14
11,HMTPQDYEYLRKLLKDQSGLDLSVDKQYLLESRLVPLSRKAGLAGIPELVQKMKAGSASLTAQVVEAMTT,-0.11
12,HMTPVFGEEETVLQAAVRGIISDTDQWTMEAEAKSMLNQLGFSDYEEKMAHMSGGQKKRVALVNALLTP,0.116
13,HMTQDFEPGGQVFSRGEWLTIIRVNKSNGAVSSVTTPNYSFLGYSGTMKVTPDRITDYKAPSAEEAAVAS,-0.451
14,HMTQGRVTGDGVNVRSQPNTDSAILTRVSTGKVVELISLKDNWYNVVVNGTKGYIRADYVSPYDG,-0.904
15,HMTQLPEVPVERGMVLEEVQSGWVGAVTRVEKSGGMHVVALEDRRGKSRSFRLGFGFLLEGQPIRLMPPAP,-1.89
16,HMTRAETPMAFIRAMVEAYTERGLDPNQALRKAQITPSQLKSTNARVTTLQMEWMSETAMREL,-0.292
17,HMTRDAQLAALERLMDDPSPVVRKAVLKGVQAAGTEGLLWLQQLSKNQTLGPYALALLTELR,-0.72
18,HMTRNGTVTFFNHDKGYGFIKDVLTQESVFVHINSLSEPINEQNKVSFEIEMGPRGSNAINVKLI,-1.65
19,HMTRTEYMAQLEKYLKKLPHKEFQEAITFFNEYFDEAGPEKETAIMEELGSPKEAASELITNILNRHI,-0.433
20,HMTRTISKVAKELAINIETVRFYERRGLIEQPPKPELGYRHYPDETVNRIRFIKRAQELGFTLEEIANLLS,-1.66
21,HMTRVDALDQLAAIRFSSHIFAEDQDLRMVVVDGQRIGEGDIVRDEIRLEQITETGVIFEYQGERFPIDV,-1.45
22,HMTRYQHLAMLLEKRIAQGLYRNGERLPSVRSLSAEHGVSISTVQQAYYLLEQKQLIIPQSRSGYYVAPH,-4.46
